# From US20240317877A1 (IUCF HYU INDUSTRY UNIVERSITY COOPERATION FOUNDATION HANYANG …, published 2024)
# Numbering of substitutions follows the chain as printed. Names may count otherwise.
# B1: anti-human transferrin receptor antibody 128.1, wild type (WT) (antibody, V domains shown)
# VH: EVQLQQSGPELVKPGASMKISCKASGYSFTGYTMNWVKQSHGENLEWIGRINPHNGGTDYNQKFKDKAPLTVDKSSNTAYMELLSLTSEDSAVYYCARGYYYYSLDYWGQGTSVTVSS
# VL: QIVLTQSPAIMSASPGEKVTMTCSASSSIDYIHWYQQKSGTSPKRWIYDTSKLASGVPARFSGSGSGTSYSLTISSMEPEDAATYYCHQRNSYPWTFGGGTRLEIR
# notes: The ELISA detects with anti-human IgG-HRP; also called anti-hTfR antibody; anti-TfR(WT)
# B2: anti-human transferrin receptor antibody 128.1 with VH Y98A mutation (antibody, V domains shown)
# VH: B1 VH with Y102A
# VL: B1 VL
# B3: anti-human transferrin receptor antibody 128.1 with VH Y27H mutation (antibody, V domains shown)
# VH: B1 VH with Y27H
# VL: B1 VL
# notes: Same vector format as WT (human IgG constant region with myc-His tag, human kappa CL); also called anti-TfR(VH Y27H)
# B4: anti-human transferrin receptor antibody 128.1 with VH Y99H mutation (antibody, V domains shown)
# VH: B1 VH with Y103H
# VL: B1 VL
# B5: anti-human transferrin receptor antibody 128.1 with VL Y94A mutation (antibody, V domains shown)
# VH: B1 VH
# VL: B1 VL with Y93A
# Legend:
# [1] = biological target: T1, human transferrin receptor (human, UniProt P02786 89-760, limits assumed); assay: ELISA, plate-coated human TfR, anti-human IgG-HRP detection; WT run beside VL Y94A
# T1 construct: also called hTfR; human TfR
# T1 sequence (P02786 89-760 limits assumed): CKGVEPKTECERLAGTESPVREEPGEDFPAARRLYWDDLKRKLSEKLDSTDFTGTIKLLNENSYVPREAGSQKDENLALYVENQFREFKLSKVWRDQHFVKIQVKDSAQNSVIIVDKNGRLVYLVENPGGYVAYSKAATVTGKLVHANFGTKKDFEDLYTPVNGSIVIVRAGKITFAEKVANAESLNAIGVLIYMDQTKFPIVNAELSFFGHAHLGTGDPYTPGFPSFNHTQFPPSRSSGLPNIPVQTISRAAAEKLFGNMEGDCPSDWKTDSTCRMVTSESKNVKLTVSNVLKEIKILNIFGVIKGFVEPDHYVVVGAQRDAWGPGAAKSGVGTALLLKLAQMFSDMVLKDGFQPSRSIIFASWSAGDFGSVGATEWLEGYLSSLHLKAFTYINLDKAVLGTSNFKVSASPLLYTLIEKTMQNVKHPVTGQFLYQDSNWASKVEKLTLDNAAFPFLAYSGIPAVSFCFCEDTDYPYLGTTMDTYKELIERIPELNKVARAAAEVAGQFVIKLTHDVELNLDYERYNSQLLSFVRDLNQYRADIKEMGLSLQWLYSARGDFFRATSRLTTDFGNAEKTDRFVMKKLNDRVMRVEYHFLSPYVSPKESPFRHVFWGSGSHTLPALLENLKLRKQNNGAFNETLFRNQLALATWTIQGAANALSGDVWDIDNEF
# Experimental: (§1) Human TfR (2.5 μg/ml) was coated on a 96-well half area plate (Corning) overnight at 4° C. Antibodies were prepared by diluting 5-fold from 50 nM to 0.64 pM. PBS (pH 7.5; same as blocking buffer) containing 5% skim milk was used for dilution. The plate was washed three times with PBS at pH 7.5, and then blocked with blocking buffer at room temperature for 2 hours and washed several more times. Various concentrations of anti-TfR antibodies were placed in the wells, and binding was induced for 2 hours. Unbound antibodies were then washed twice with PBST and twice with PBS.
# (§2) Horseradish peroxidase (HRP)-conjugated anti-human IgG antibody (AB frontier) was added and incubated for 2 hours. After the antibody washing step, 50 μl of TMB solution was added and incubated at 37° C. for 20 minutes. Finally, an equal volume of stop solution was added and mixed, and then the absorbance was measured at 450 nm using an EMax Microplate Reader (Molecular Devices). Steps other than TMB incubation were performed at room temperature.
# [2] = biological target: T1, human transferrin receptor; assay: ELISA, plate-coated human TfR, anti-human IgG-HRP detection; WT run beside VH Y98A
# Experimental: as §1, §2
# [3] = biological target: T1, human transferrin receptor; assay: ELISA, plate-coated human TfR, anti-human IgG-HRP detection; WT run beside VH Y27H
# Experimental: as §1, §2
# [4] = biological target: T1, human transferrin receptor; assay: ELISA, plate-coated human TfR, anti-human IgG-HRP detection; WT run beside VH Y99H
# Experimental: as §1, §2
# [5] = biological target: T1, human transferrin receptor; assay: ELISA, plate-coated human TfR; mutant against WT
# Experimental: as §1, §2
# [6] = biological target: T1, human transferrin receptor; assay: ELISA, plate-coated human TfR, anti-human IgG-HRP detection
# Experimental: as §1, §2
EC50 [1] [nM],EC50 [2] [nM],EC50 [3] [nM],EC50 [4] [nM],Fold-increase of EC50 (Reduced rate of binding affinity) [5] [fold],EC50 [6] [nM],Binder
0.44,0.53,0.057,0.048,–,–,B1
–,–,–,–,> 100,–,B2
–,–,–,–,35,1.98,B3
–,–,–,–,9.2,0.44,B4
–,–,–,–,1.2,0.52,B5
